Source: US10526416B2, “Anti-HER3 antibodies and uses of same” (Yeda Research and Development Co. Ltd., priority 2014, dated 2020)

Key:
NRG binding to HER3 = NRG binding to HER3 (Homo sapiens, UniProt P21860); conditions: increasing mAb concentrations, 45 min at 4° C., then d2-labeled NRG
Experimental: (FIG. 9A) The indicated mAbs were checked for their capacity to compete with fluorescent dye labeled NRG. […] After washes, the labeled-NRG was added and incubated for 30 min at 4° C. Fluorescence intensity at 670 nm was determined following 3 final washes. (FIG. 9B) The ability of the mAbs to avoid NRG-induced phosphorylation of HER3, AKT and ERK, was studied with N87 cells. After 20 min treatment with the indicated mAbs (10 μg/ml) at 37° C., NRG (20 ng/ml) was added to the cells for 10 min. The cells were then lysed, and equal quantities of protein lysates were run on 9% bisacrylamide gel before immunoblotting with the indicated primary antibodies. (FIG. 9C) The capacity of mAb NG33 to avoid NRG-induced migration was checked with OVCAR-5 cells and the quantification reported in a histogram. […] Signals of triplicates were quantified. **** […] (ANOVA and post hoc tests).
Agent labeling was performed by Cisbio. […] Following 1 h incubation, the plate was washed 4 times with KREBS buffer (146 mM NaCl, 4 mM KCl, 0.5 mM MgCl2, 1 mM CaCl2, 10 mM Hepes, 1 gr/L glucose, and 1 mg/mL albumin), and the fluorescent intensity (excitation: 488 nm, emission: 610 nm) was measured using a fluorescence microplate reader. […] Finally, following two washes with KREBS buffer, the fluorescence intensity was measured at 670 nm (excitation: 620 nm). […]

BxPC3 cells = experiment: MTT assay on BxPC3 cells in culture; format: cell-based, human; conditions: 3 days
Experimental: FIGS. 15A-F show the effects of a mixture of two anti HER3 mAbs, in vivo on BxPC3 cell xenografts and in vitro. (FIGS. 15A-C) CD1-Nude mice were grafted subcutaneously with 5×10^6 BxPC3 cells. Once tumors became palpable (after 13 days), the mice were randomized into group of 8 mice and treated every 3 days for 5 weeks. The control group (CTRL) was injected intra-peritoneally (IP) with 200 μl PBS. The other groups were treated with mAb alone or in combination at a final concentration of 0.2 mg/0.2 ml of PBS per mouse. The mice were weighted once a week and the tumors measured twice a week. An average tumor size of 7-8 mice (+/−SEM) is shown. (FIGS. 15D-F) Proliferation assays using MTT were performed on BxPC-3. 5,000 cells per well were plated the day before and treated for 72 h with the indicated mAb treatment. Decreasing concentrations of the indicated mAb (alone or in combination) were used in medium supplemented with 1% serum and NRG (10 ng/ml).
To determine if the combination of NG33 mAb with another anti-HER3 mAb is more efficient than using NG33 alone, the combination of two mAbs, NG33 and XC252, was tested on several tumor cell lines, which were grafted subcutaneously (gastric: N87, lung: A549, pancreatic: BxPC3, ovarian: OVCAR-5, and head and neck: CAL-27, FIG. 14). This pilot was performed with 3 mice per group. Mice were injected twice a week with the mAb combination or with PBS. The best responder of these in vivo models for solid tumor growth was the BxPC3 xenograft model. […] This experiment was performed on 7 to 8 mice per group. The mice were treated every 3 days with PBS, each mAb alone or a mAb combination, for 5 weeks (0.2 mg/injection). […] In order to reinforce the in vivo data, the cytotoxicity of each mAb alone or in combination with NG33 was tested on BxPC3 cells in culture (FIGS. 15D, 15E and 15F). Decreasing concentrations of mAb were used and a MTT assay was performed following 3 days of treatment. […] On the contrary, XC252 used alone has a […] cytotoxic impact on BxPC3 proliferation leading to 60% inhibition of cell survival at high concentration.

NRG binding to HER3, sequence (P21860 20-1342): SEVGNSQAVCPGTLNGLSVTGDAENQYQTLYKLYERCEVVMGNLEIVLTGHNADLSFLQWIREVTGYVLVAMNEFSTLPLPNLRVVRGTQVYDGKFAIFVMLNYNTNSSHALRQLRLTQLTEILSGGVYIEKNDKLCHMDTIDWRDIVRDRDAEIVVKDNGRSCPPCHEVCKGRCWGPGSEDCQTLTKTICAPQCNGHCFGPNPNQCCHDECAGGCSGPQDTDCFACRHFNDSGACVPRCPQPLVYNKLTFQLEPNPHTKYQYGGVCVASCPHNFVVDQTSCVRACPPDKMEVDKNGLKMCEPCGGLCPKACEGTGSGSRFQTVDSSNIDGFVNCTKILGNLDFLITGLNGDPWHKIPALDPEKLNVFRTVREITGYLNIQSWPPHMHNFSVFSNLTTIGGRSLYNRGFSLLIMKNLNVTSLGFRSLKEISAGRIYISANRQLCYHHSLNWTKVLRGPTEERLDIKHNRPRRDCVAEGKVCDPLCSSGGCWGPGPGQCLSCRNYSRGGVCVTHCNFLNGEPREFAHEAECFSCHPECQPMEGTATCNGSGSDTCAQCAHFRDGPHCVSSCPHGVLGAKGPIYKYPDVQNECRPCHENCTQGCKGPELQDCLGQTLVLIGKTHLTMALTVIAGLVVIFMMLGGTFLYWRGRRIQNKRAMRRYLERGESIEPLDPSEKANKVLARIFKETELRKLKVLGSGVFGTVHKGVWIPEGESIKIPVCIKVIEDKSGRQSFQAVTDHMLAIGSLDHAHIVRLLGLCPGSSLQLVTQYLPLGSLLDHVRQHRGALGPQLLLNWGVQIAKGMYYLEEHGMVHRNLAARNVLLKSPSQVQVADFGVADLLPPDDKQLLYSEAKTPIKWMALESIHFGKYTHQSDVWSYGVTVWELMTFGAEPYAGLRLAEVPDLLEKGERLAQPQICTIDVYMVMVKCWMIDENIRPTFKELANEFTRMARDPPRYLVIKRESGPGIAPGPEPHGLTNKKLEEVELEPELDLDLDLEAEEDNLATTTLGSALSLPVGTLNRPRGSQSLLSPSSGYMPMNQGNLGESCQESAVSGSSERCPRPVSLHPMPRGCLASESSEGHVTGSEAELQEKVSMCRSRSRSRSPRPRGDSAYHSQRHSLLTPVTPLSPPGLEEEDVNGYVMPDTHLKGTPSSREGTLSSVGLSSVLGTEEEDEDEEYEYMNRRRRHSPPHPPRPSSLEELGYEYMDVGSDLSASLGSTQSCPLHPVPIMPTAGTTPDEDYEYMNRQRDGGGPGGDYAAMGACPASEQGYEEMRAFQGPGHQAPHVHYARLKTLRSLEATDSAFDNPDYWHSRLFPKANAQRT

Molecule | effect on NRG binding to HER3 (NRG binding to HER3) | effect on BxPC3 proliferation/survival (in words) (BxPC3 cells) | inhibition of cell survival (BxPC3 cells; high concentration, 1% serum, NRG 10 ng/ml) [%]
NG83: anti-HER3 mAb; light chain CDRs SEQ ID NOs: 7-9, heavy chain CDRs 10-12 (antibody, V domains shown, VH chain of NG83 polypeptide; VL chain of NG83 polypeptide) VH: QIQLVQSGPELKKRGETVKISCKASGYTFTNYGMNWVRQAPGKGLKCMGWINTYAGEPTYADDFKGRFAFSLDSSASTAYLQINNLKNEDMATYFCARGGITGAMDYWGQGTSVTVSS VL: DVVMTQKTSSLSTSLGDRVTISCRASQDIRNYLNWYQQKPDGTVKLLIYYTSRLHSGVPSRFSGSGSGTDYSLTISDLEQEDIATYFCQQGNTLPWTFGGGTKLAIK | did not disturb NRG binding | did not interfere with cell proliferation | 
XC252: anti-HER3 mAb generated as described in Chen X, et al. (1996); heavy and light chain SEQ ID NOs: 49 and 53 (antibody, V domains shown, VH chain of XC252 polypeptide; VL chain of XC252 polypeptide) VH: EVQLQQSGAELVRPGVSVKISCKGSGYTFTDYAMHWVKQSHAKSLEWIGVISTYYGDPRDNQKFKGKATMTVDKSSSTAYMELARLTSEDSAIYYCARGDYDWYAIDYWGQGTSVTVSS VL: DVVMTQTPLSLPVSLGDQASISCRSSQSIVHSDGNTYLEWYLQKPGQSPKLLIYKVSNRFSGVPDRFSGSGSGTDFTLKISRVEAEDLGVYYCFQGSHVPPTFGGGTKLEIK | slightly enhanced NRG binding |  | 60
